Test results published in US20230295310A1 (ABCELLERA BIOLOGICS, published 2023).

Legend:
[1] = target: T1, human CD3 expressed on cells (Jurkat cells; human primary T cells) (human, UniProt P07766 23-207; P04234 22-171; P09693 23-182); experiment: flow cytometry, Jurkat cells
T1 construct: whole, on cells
Description: (§1) Purified antibodies were confirmed to bind CD3 expressed on cells using the CytoFLEX S or LX flow cytometers (Beckman Coulter). Antibodies were diluted to 25 nM in FACS buffer (PBS+2% FBS) and were incubated with CD3-expressing cells for 30 minutes at 4° C. […] The median fluorescence intensity of the binding signal for each antibody was normalized to the isotype control to obtain a fold over isotype value. An antibody with a fold over isotype (FOI) of ≥10 was considered to be positive for binding.

[2] = target: T2, cynomolgus monkey CD3 expressed on cyno primary T cells (cynomolgus monkey, UniProt Q95LI5 22-198; Q95LI8 22-171; Q95LI7 23-181); experiment: flow cytometry, cyno primary T cells
T2 construct: whole, on cells; CD3 complex on purified cynomolgus monkey CD3 pan T cells; also called cyno CD3
T2 sequence (Q95LI5 22-198, chain 1 of 3): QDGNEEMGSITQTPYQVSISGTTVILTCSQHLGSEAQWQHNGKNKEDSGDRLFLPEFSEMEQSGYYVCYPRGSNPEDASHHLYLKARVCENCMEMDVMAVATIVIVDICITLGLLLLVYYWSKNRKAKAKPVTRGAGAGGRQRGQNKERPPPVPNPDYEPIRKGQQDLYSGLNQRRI
T2 sequence (Q95LI8 22-171, chain 2 of 3): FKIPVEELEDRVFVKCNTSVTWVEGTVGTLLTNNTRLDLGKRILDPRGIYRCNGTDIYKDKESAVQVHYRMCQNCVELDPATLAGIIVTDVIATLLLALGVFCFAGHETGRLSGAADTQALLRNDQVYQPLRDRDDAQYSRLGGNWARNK
T2 sequence (Q95LI7 23-181, chain 3 of 3): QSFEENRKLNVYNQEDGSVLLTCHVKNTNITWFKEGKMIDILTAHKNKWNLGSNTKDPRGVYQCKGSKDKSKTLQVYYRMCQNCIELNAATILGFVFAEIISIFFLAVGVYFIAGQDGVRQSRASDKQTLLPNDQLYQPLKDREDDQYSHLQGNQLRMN
Method in brief: (§2)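 Antibodies at 25 nM in PBS + 2% FBS were incubated with CD3-expressing cells for 30 min at 4 °C and read by flow cytometry. Median fluorescence intensity was normalized to isotype control as fold over isotype; ≥10 counted as binding.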

[3] = target: T3, human CD3 expressed on cells (human, UniProt P07766 23-207; P04234 22-171; P09693 23-182); experiment: flow cytometry, 25 nM
T3 construct: whole, on cells; CD3 complex on Jurkat cells and on human primary T cells
T3 sequence (P07766 23-207, chain 1 of 3): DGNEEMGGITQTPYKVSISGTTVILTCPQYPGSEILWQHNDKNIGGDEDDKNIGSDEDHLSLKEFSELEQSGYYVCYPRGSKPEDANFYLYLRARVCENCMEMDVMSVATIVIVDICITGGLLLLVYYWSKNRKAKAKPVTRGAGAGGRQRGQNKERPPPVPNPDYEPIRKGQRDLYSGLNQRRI
T3 sequence (P04234 22-171, chain 2 of 3): as the sequence (Q95LI8 22-171, chain 2 of 3) above, with V5I, K15N, V20I, T32S, N33D, N34I, A64T, N74S, L83V, R141H counted along it
T3 sequence (P09693 23-182, chain 3 of 3): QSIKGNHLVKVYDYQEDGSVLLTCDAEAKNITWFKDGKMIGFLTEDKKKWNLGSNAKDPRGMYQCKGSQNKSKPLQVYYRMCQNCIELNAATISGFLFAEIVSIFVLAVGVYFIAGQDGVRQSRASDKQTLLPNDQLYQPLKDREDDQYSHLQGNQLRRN
Method in brief: as §2

[4] = target: T4, cynomolgus monkey CD3 expressed on primary T cells (cynomolgus monkey, UniProt Q95LI5 22-198; Q95LI8 22-171; Q95LI7 23-181); experiment: flow cytometry, 25 nM, cyno primary T cells
T4 construct: whole, on cells; CD3 complex on purified cynomolgus monkey T cells; also called cyno CD3
T4 sequence (Q95LI5 22-198, chain 1 of 3): as the sequence (Q95LI5 22-198, chain 1 of 3) above
T4 sequence (Q95LI8 22-171, chain 2 of 3): as the sequence (Q95LI8 22-171, chain 2 of 3) above
T4 sequence (Q95LI7 23-181, chain 3 of 3): as the sequence (Q95LI7 23-181, chain 3 of 3) above
Method in brief: as §2

[5] = target: T3, human CD3 expressed on cells; experiment: flow cytometry, 25 nM, Jurkat cells (human primary T cells in c4 also <10)
Description: as §1

T1 sequence (P07766 23-207, chain 1 of 3): as the sequence (P07766 23-207, chain 1 of 3) above
T1 sequence (P04234 22-171, chain 2 of 3): as the sequence (Q95LI8 22-171, chain 2 of 3) above, with V5I, K15N, V20I, T32S, N33D, N34I, A64T, N74S, L83V, R141H counted along it
T1 sequence (P09693 23-182, chain 3 of 3): as the sequence (P09693 23-182, chain 3 of 3) above

Human primary T Cell Binding (FOI) [3] [FOI]	binding result [4]	binding result [5]	Binder	binding result [1]	binding result [2]
–	–	–	mAb 253 (antibody, V domains shown, VH/VL only) VH: QVTLKESGPVLVKPTETLTLTCTVSGFSLSNARMGVSWIRQPPGKALEWLTLIFSIDEKSYSTSLKSRLTISQDTSKSQVVLTVTNMDPVDTVTYFCERIETGPYYYYYYMDVWGKGTTVTVSS VL: not shown	no binding (tested: FOI <10 (FOI >=10 = positive); 25 nM)	no binding (tested: FOI <10 (FOI >=10 = positive); 25 nM)
–	–	–	mAb 254 (antibody, V domains shown, VH/VL only) VH: QVTLKESGPVLVKPTETLTLTCTVSGFSLSNSRMGVSWLRQPPGKALEWLIFIFSIDEKSYSTSLKSRLTISQDTSKSQVVLTMTNMDPVDTVTYFCERIETGPYYYYYYMDVWGKGTTVTVSS VL: not shown	no binding (tested: FOI <10 (FOI >=10 = positive); 25 nM)	no binding (tested: FOI <10 (FOI >=10 = positive); 25 nM)
–	–	–	mAb 182 (antibody, V domains shown, VH/VL only) VH: QVQLVQSGAGMKKPGASVRVSCKASGYNFIDYHIHWVRQAPGQGLEWMGWINPKSGRTMSAQKFQGRVTMTRDTSITAAYMELNRLRSDDSAIYYCARVTQLVFDHWGQGTLVTVSL VL: not shown	no binding (tested: FOI <10 (FOI >=10 = positive); 25 nM)	no binding (tested: FOI <10 (FOI >=10 = positive); 25 nM)
–	–	–	mAb 184 (antibody, V domains shown, VH/VL only) VH: QVQLVESGGGVVQPGRSLRLSCAASGFTFSDYGMHWVRQAPGKGLEWVSVIWSDGLNKYYKDSVKGRFTISRDNSKNTLYLQMNSLRAADTAVYYCARLYSGSHYHYFMDVWGKGTSVTVSS VL: DILLTQSPSFLSASVGDRVTITCRASQDISSSLAWYQQKPKKAPDLLIYTASTLQSGVPSRFSGRGSGTEFTLTISNLQPEDFATYYCQQLKNYPITFGQGTRLEIK	no binding (tested: FOI <10 (FOI >=10 = positive); 25 nM)	no binding (tested: FOI <10 (FOI >=10 = positive); 25 nM)
–	–	–	mAb 181 (antibody, V domains shown, VH/VL only) VH: QVQLVQSGADMKKPGASVKVSCKASGYTFTDYHIHWVRQAPGQGLEWMGWINPKSGRTMFAQNFQDRVTMTRDTSISTAYMELNRLRSDDSAVYYCARVTQLVFDHWGQGTLVTVSF VL: AIQMTQSPSSLSASVGDRVTITCRASQGIRNDLGWYQQKPGKAPKLLIYAASSLQSGVPSRFSGSGSGTDFTLTISSLQPEDFATYYCLQDYNYMYTFGQGTKLEIK	no binding (tested: FOI <10 (FOI >=10 = positive); 25 nM)	no binding (tested: FOI <10 (FOI >=10 = positive); 25 nM)
–	–	–	mAb 187 (antibody, V domains shown, VH/VL only) VH: EVQLLESGGGLVQPGGSLRLSCAASGFTFSSYAMNWVRQAPGKGLEWVSAISSSGGRTYYADSVKGRFTISRDNSKNTLYLQMNSLRAEDTAVYYCAKDSTSHPYMDVWGKGTTVTVSS VL: AIQMTQSPSSLSASVGDRVTITCRASQGIRNDLGWYQQQPGKAPKLLIYDASSLQSGVPSRFSGSGSGTVFTLTISSLQPEDFATYFCLQDYNYPFTFGPGTKVDIK	no binding (tested: FOI <10 (FOI >=10 = positive); 25 nM)	no binding (tested: FOI <10 (FOI >=10 = positive); 25 nM)
–	–	–	mAb 185 (antibody, V domains shown, VH/VL only) VH: QVQLVQSGSEVKKPGASVRVSCKASGYIFTGYHIHWVRQAPGQGLEWMGWINPKSGRTSYAQNFQARVTMTRDTSINTIHMELSRLRSDDTAIYYCMRVGEQLLFDFWGQGTLVTVSS VL: not shown	no binding (tested: FOI <10 (FOI >=10 = positive); 25 nM)	no binding (tested: FOI <10 (FOI >=10 = positive); 25 nM)
–	–	–	mAb 274 (antibody, V domains shown, VH/VL only) VH: QVQLVQSGAEVKKPGASVRVSCKASGYTFTGYYMHWVRQAPGQGLEWMGWIYPNSGRTNYAQKFQGRVTMTRDTSISTAYMELTRLISDDTAVYYCARLWDLYFDYWGQGTLVTVSS VL: DIQLTQSPSFLSASVGDRVTITCRASQGISSYLAWYQQKPGKAPKLLIYAASTLQSGVPSRFSGSGSGTEFTLTISSLQPEDFATYYCQQLNSYPWTFGQGTKVEIK	no binding (tested: FOI <10 (FOI >=10 = positive); 25 nM)	no binding (tested: FOI <10 (FOI >=10 = positive); 25 nM)
–	–	–	mAb 268 (antibody, V domains shown, VH/VL only) VH: QVQLVQSGSEVKKPGASVKVSCKASGYTFTGYYIHWVRQAPGQGLEWMGWINPNSGRTNYAQNFQGRVTMTRDTSITTAHMELTRLTSDDTAVYYCARLELLVFDYWGQGTLVTVSS VL: DIQMTQSPSSLSASVGDRVTITCRASQTIYNYLNWYQQKPGKAPQVLIYAASNLQSGVPSIFSGSGSGTDFTLTITNLQPEDFATYYCQQTYSIPFTFGGGTKVEIK	no binding (tested: FOI <10 (FOI >=10 = positive); 25 nM)	no binding (tested: FOI <10 (FOI >=10 = positive); 25 nM)
–	–	–	mAb 269 (antibody, V domains shown, VH/VL only) VH: QVQLVQSGSEVKKPGASVKVSCKASGYTFTGYYIHWVRQAPGQGLEWMGWINPNSGRTNYAQNFQGRVTMTRDTSITTAHMELTRLTSDDTAVYYCARLELLVFDYWGQGTLVTVSS VL: not shown	no binding (tested: FOI <10 (FOI >=10 = positive); 25 nM)	no binding (tested: FOI <10 (FOI >=10 = positive); 25 nM)
1.48	no binding (tested: FOI >=10 = positive)	no binding (tested: FOI >=10 = positive)	mAb 168 (antibody, V domains shown) VH: EVQLVQSGAEVKKPGESLKISCKGSGYIFTSYWIGWVRQMPGKGLEWMGIIYPGDSDTRYSPSFQGQVTISADKSISTAYLQWSSLKASDTAMYYCARRNYYYYMDVWGKGTTVTVSS VL: not shown	–	–
–	–	–	mAb 183 (antibody, V domains shown, VH/VL only) VH: QVQLVQSGAEVKKPGASVRVSCKSSGYTFTGYYIHWVRQAPGQGLEWMGWINPKSGRTSYAEKFQGSITMTRDTSINTAYMELTKLRSDDTAVYYCERMGELLLFDYWGQGTLVTVSS VL: not shown	no binding (tested: FOI <10 (FOI >=10 = positive); 25 nM)	no binding (tested: FOI <10 (FOI >=10 = positive); 25 nM)
1.58	no binding (tested: FOI >=10 = positive)	no binding (tested: FOI >=10 = positive)	mAb 147 (antibody, V domains shown) VH: QVQLVQSGAEVKKPGASVKVSCKASGYTFTAYHTHWVRQAPGQGLEWMGWIYPKSGRTTYTQKFQGRVTMTRDTSISTVYMELSRLKSDDTAVYYCARVGALLFDYWGQGTLVTVSS VL: not shown	–	–
1.44	no binding (tested: FOI >=10 = positive)	no binding (tested: FOI >=10 = positive)	mAb 148 (antibody, V domains shown) VH: QVQLVQSGAEVKKPGASVKVSCKASGYTFTAYHTHWVRQAPGQGLEWMGWIYPKSGRTTYTQKFQGRVTMTRDTSISTVYMELSRLKSDDTAVYYCARVGALLFDYWGQGTLVTVSS VL: EIVLTQSPATLSLSPGERATLSCRASQSVSSYLAWYQQKPGQAPRLLIYDASNRATGIPARFSGSGSGTDFTLTISSLEPEDFAVYYCQQRSNWPFTFGPGTKVDIK	–	–
1.36	no binding (tested: FOI >=10 = positive)	no binding (tested: FOI >=10 = positive)	mAb 151 (antibody, V domains shown) VH: QVQLVQSGAEVKKPGASVKVSCKASGYTFTAYHTHWVRQAPGQGLEWMGWIYPKSGRTTYTQKFQGRVTMTRDTSISTVYMELSRLKSDDTAVYYCARVGALLFDYWGQGTLVTVSS VL: DIQMTQSPSSLSASVGDRVTITCRASQGIRNDLGWYQQKPGKAPKCLIYAASNLQSGVPSRFSGSGSGTEFTLTISSLQPEDFATYYCLQHNSYPRTFGQGTKVDVK	–	–
1.45	no binding (tested: FOI >=10 = positive)	no binding (tested: FOI >=10 = positive)	mAb 149 (antibody, V domains shown) VH: QVQLVQSGAEVKKPGASVKVSCKASGYTFTAYHTHWVRQAPGQGLEWMGWIYPKSGRTTYTQKFQGRVTMTRDTSISTVYMELSRLKSDDTAVYYCARVGALLFDYWGQGTLVTVSS VL: not shown	–	–
1.68	no binding (tested: FOI >=10 = positive)	no binding (tested: FOI >=10 = positive)	mAb 150 (antibody, V domains shown) VH: QVQLVQSGAEVKKPGASVKVSCKASGYTFTAYHTHWVRQAPGQGLEWMGWIYPKSGRTTYTQKFQGRVTMTRDTSISTVYMELSRLKSDDTAVYYCARVGALLFDYWGQGTLVTVSS VL: EIVLTQSPATLSLSPGERATLSCRASQSVSSYLAWYQQKPGQAPRLLIYDASNRATGIPARFSGSGSGTDFTLTISSLEPEDFAVYYCQQRSNWPLTFGGGTKVEIK	–	–
